{"source": "paper PMC9399289", "about": "“Extended DNA-binding interfaces beyond the canonical SAP domain contribute to the function of replication stress regulator SDE2 at DNA replication forks”", "key": {"GST-SDE2-FLAG WT": {"target": "T1, GST-SDE2-FLAG WT (human, UniProt Q6IQ49 1-451)", "T1 sequence": "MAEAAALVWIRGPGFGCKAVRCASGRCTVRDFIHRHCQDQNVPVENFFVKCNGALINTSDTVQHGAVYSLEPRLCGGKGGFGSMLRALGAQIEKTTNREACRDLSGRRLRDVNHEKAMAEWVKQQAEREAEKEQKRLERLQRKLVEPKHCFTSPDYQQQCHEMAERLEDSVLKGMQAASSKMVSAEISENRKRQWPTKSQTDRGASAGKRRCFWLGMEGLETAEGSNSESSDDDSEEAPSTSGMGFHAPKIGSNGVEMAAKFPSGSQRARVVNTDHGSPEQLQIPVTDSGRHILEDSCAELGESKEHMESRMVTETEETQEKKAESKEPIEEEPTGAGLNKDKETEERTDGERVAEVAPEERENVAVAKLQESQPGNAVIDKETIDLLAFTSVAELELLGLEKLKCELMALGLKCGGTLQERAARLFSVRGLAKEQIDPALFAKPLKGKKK", "assay": "fluorescence anisotropy; EMSA: 10 mM Tris-HCl pH 7.5, 50 mM NaCl, 0.5 mM DTT, 0.05 mM EDTA, 3% glycerol, 0.05 mg/ml BSA (or 50 mM Na/K PO4 pH 6.0, 50 mM NaCl, 5 mM DTT), on ice; anisotropy: 50 mM Na/K PO4 pH 6.0, 50 mM NaCl, 5 mM DTT, 1 uM DNA; pull-down: 10 mM Tris-HCl pH 7.5, 100 mM NaCl, 0.2 mM EDTA, 1 mM DTT, 10% glycerol, 0.01% NP-40, 10 ug/ml BSA, RT; NMR: 50 mM Na/K phosphate, 50 mM NaCl, 5 mM DTT, 10% D2O", "conditions": "protein: recombinant; tags: N-term GST, C-term FLAG; label: 5' 6-FAM"}, "GST-SDE2SAP": {"target": "T2, GST-SDE2SAP (human, UniProt Q6IQ49 350-451)", "T2 sequence": "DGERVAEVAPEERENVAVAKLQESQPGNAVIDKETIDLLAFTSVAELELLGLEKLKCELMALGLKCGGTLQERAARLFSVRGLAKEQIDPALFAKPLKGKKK", "assay": "fluorescence anisotropy; EMSA: 10 mM Tris-HCl pH 7.5, 50 mM NaCl, 0.5 mM DTT, 0.05 mM EDTA, 3% glycerol, 0.05 mg/ml BSA (or 50 mM Na/K PO4 pH 6.0, 50 mM NaCl, 5 mM DTT), on ice; anisotropy: 50 mM Na/K PO4 pH 6.0, 50 mM NaCl, 5 mM DTT, 1 uM DNA; pull-down: 10 mM Tris-HCl pH 7.5, 100 mM NaCl, 0.2 mM EDTA, 1 mM DTT, 10% glycerol, 0.01% NP-40, 10 ug/ml BSA, RT; NMR: 50 mM Na/K phosphate, 50 mM NaCl, 5 mM DTT, 10% D2O", "conditions": "protein: recombinant; tags: N-term GST; label: 5' 6-FAM"}, "GST-SDE2 CGTKK": {"target": "T3, GST-SDE2 CGTKK (human, UniProt Q6IQ49 1-451, C415A;G417S;T418V;K444A;K447A)", "T3 sequence": "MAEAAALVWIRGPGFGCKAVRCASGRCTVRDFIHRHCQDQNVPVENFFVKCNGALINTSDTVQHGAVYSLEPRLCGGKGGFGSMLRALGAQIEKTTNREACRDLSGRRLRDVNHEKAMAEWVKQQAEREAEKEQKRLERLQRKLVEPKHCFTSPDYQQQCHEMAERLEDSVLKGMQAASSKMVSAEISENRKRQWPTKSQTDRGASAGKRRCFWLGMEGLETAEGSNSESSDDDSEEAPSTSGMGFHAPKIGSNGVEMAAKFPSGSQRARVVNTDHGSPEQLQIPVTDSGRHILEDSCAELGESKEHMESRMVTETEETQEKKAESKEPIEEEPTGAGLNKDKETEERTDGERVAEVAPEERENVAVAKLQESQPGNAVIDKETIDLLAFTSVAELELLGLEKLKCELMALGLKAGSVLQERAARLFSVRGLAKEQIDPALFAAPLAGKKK", "assay": "EMSA; 50-200 nM protein, 20 nM DNA; EMSA: 10 mM Tris-HCl pH 7.5, 50 mM NaCl, 0.5 mM DTT, 0.05 mM EDTA, 3% glycerol, 0.05 mg/ml BSA (or 50 mM Na/K PO4 pH 6.0, 50 mM NaCl, 5 mM DTT), on ice; anisotropy: 50 mM Na/K PO4 pH 6.0, 50 mM NaCl, 5 mM DTT, 1 uM DNA; pull-down: 10 mM Tris-HCl pH 7.5, 100 mM NaCl, 0.2 mM EDTA, 1 mM DTT, 10% glycerol, 0.01% NP-40, 10 ug/ml BSA, RT; NMR: 50 mM Na/K phosphate, 50 mM NaCl, 5 mM DTT, …", "conditions": "protein: recombinant; tags: N-term GST; label: 5' 6-FAM"}, "GST-SDE2 ΔSAP+CTT": {"target": "T4, GST-SDE2 ΔSAP+CTT (human, UniProt Q6IQ49 1-394, del395-451)", "T4 sequence": "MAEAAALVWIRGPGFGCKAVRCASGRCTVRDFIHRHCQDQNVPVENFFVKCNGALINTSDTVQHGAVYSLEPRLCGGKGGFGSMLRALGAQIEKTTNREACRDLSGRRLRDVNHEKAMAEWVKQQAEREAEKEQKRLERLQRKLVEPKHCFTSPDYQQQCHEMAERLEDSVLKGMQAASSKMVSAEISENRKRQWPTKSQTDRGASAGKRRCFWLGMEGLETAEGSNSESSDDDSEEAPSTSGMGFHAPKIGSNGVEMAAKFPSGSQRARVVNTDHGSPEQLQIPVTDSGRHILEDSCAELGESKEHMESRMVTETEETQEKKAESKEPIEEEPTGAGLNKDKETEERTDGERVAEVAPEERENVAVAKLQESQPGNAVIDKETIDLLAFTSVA", "assay": "EMSA; 50-200 nM protein; EMSA: 10 mM Tris-HCl pH 7.5, 50 mM NaCl, 0.5 mM DTT, 0.05 mM EDTA, 3% glycerol, 0.05 mg/ml BSA (or 50 mM Na/K PO4 pH 6.0, 50 mM NaCl, 5 mM DTT), on ice; anisotropy: 50 mM Na/K PO4 pH 6.0, 50 mM NaCl, 5 mM DTT, 1 uM DNA; pull-down: 10 mM Tris-HCl pH 7.5, 100 mM NaCl, 0.2 mM EDTA, 1 mM DTT, 10% glycerol, 0.01% NP-40, 10 ug/ml BSA, RT; NMR: 50 mM Na/K phosphate, 50 mM NaCl, 5 mM DTT, 10% D2O", "conditions": "protein: recombinant; tags: N-term GST; label: 5' 6-FAM"}, "GST-SDE2-FLAG ΔSAP": {"target": "T5, GST-SDE2-FLAG ΔSAP (human, UniProt Q6IQ49 1-451, del395-427)", "T5 sequence": "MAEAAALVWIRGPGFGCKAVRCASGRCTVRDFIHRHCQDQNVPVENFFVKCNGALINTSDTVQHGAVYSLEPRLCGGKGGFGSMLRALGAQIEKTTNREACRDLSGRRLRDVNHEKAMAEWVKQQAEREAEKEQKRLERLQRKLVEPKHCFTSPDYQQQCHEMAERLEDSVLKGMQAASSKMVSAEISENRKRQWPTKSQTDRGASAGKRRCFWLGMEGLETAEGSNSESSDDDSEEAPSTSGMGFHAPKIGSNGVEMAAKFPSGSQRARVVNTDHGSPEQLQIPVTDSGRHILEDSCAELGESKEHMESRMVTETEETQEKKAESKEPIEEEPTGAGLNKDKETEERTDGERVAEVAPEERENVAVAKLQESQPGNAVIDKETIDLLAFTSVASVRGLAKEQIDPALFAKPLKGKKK", "assay": "EMSA; 200 nM protein, 50 nM DNA; EMSA: 10 mM Tris-HCl pH 7.5, 50 mM NaCl, 0.5 mM DTT, 0.05 mM EDTA, 3% glycerol, 0.05 mg/ml BSA (or 50 mM Na/K PO4 pH 6.0, 50 mM NaCl, 5 mM DTT), on ice; anisotropy: 50 mM Na/K PO4 pH 6.0, 50 mM NaCl, 5 mM DTT, 1 uM DNA; pull-down: 10 mM Tris-HCl pH 7.5, 100 mM NaCl, 0.2 mM EDTA, 1 mM DTT, 10% glycerol, 0.01% NP-40, 10 ug/ml BSA, RT; NMR: 50 mM Na/K phosphate, 50 mM NaCl, 5 mM DTT, …", "conditions": "protein: recombinant; tags: N-term GST, C-term FLAG; label: 5' 6-FAM"}}}
{"binder": "60-mer ssDNA (EMSA1) (ssDNA) DNA: GACGCTGCCGAATTCTACCAGTGCCTTGCTAGGACATCTTTGCCCACCTGCAGGTTCACCC", "values": [{"measurement": "Kd", "setting": "GST-SDE2-FLAG WT", "value": "~1100", "unit": "nM"}, {"measurement": "Kd", "setting": "GST-SDE2SAP", "value": "1770 ± 410", "unit": "nM"}, {"measurement": "binding result", "setting": "GST-SDE2 CGTKK", "value": "no binding"}, {"measurement": "binding result", "setting": "GST-SDE2 ΔSAP+CTT", "value": "no binding"}, {"measurement": "binding result", "setting": "GST-SDE2-FLAG ΔSAP", "value": "no binding"}]}
